# Assay results: patent US20260250320A1, “LIPIDATED PEPTIDE INHIBITORS OF INTERLEUKIN-23 RECEPTOR” (Janssen Pharmaceutica NV, priority 2023, published 2026)
# *1 amine or outer side, *2 acyl side, *3 side chain or, on linkers, in order; H or OH if unused. Bridges are numbered along the chain shown (N, C = ends). Primed or numbered codes have the meaning given here. Where no end group is shown, it is not given here. Side-chain parts run from the residue outwards. [ ]: non-standard residue; d: D form. The star is where a group is joined. code d = side-chain group of K(d): lysine given as (2R)-2-(4-((5-amino-5-carboxypentyl)amino)-4-oxobutanamido)-3-carboxy-N,N,N-trimethylpropan-1-aminium, C[N+](C)(C)C[C@@H](CC(=O)O)NC(=O)CCC(=O)*; TMAPF = 5-(4-(2-amino-2-carboxyethyl)phenoxy)-N,N,N-trimethylpentan-1-aminium, C[N+](C)(C)CCCCCOc1ccc(C[C@H](N[*:1])C(=O)[*:2])cc1; code d″ = lysine side-chain amide of a carnitine-succinyl group ((2R)-3-carboxy-N,N,N-trimethylpropan-1-aminium amide; PEG2′ = PEG2 spacer unit (not further defined); Trp(7-Me) = Cc1cccc2c(C[C@H](N)C(=O)O)c[nH]c12; γGlu = O=C(O)[C@H](CCC(=O)[*:2])N[*:1]; 2Nal = N[C@@H](Cc1ccc2ccccc2c1)C(=O)O; AEF = NCCOc1ccc(C[C@H](N)C(=O)O)cc1; 3Pal = N[C@@H](Cc1cccnc1)C(=O)O; succiniccarn = not defined here; NMeK = CN[C@@H](CCCCN)C(=O)O; NMecPEG3a = not defined here; Pen = CC(C)(S)[C@H](N)C(=O)O; NMeC18OH = not defined here; 5cpaCO = not defined here; PEG12′ = not defined here; PEG2″ = PEG2 spacer unit; dAEF′ = not defined here; Thp = NC1(C(=O)O)CCOCC1; Sar = CNCC(=O)O
# T1: interleukin-23 receptor (IL-23R) (UniProt Q5VWK5 24-629, limits assumed)
# T1 sequence (looked up): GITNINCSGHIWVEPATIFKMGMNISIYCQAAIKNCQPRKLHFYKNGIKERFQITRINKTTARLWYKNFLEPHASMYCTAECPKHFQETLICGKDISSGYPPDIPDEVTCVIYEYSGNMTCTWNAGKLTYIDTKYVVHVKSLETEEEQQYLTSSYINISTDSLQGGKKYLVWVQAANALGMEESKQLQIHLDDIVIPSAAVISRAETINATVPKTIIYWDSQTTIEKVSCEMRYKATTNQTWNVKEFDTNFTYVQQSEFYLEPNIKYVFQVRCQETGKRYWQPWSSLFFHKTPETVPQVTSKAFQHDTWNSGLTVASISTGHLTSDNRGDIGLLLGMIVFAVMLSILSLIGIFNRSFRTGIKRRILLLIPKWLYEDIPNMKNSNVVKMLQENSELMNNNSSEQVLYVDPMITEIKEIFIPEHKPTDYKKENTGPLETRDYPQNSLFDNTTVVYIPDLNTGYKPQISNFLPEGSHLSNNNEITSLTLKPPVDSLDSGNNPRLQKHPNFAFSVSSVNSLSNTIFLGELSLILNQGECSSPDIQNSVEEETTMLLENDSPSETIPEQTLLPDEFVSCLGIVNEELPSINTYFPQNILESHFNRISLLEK
# B1: SEQ ID NO: 72 (peptide)
# peptide: [dR][Pen]NT[Trp(7-Me)]K([PEG2″-PEG2″-C18OH])[Pen][AEF][2Nal][Thp]EN[3Pal][Sar]-NH2
# modifications: disulfide 2-7 (inferred); not fully specified (N-terminus); printed as cPEG3aCO-r-Pen(3)-N-T-7MeW-K(PEG2PEG2C18OH)-Pen(3)-AEF-2Nal-THP-E-N-3Pya-Sar-CONH2
# B2: SEQ ID NO: 50 (peptide)
# peptide: XNTXXXXXXXNXXK
# modifications: MeCO-Pen(3)-N-T-7MeW-K(Ac)-Pen(3)-AEF-2Nal-THP-K(d)-N-3Pya-Sar-K(PEG2PEG2gEC18OH)-CONH2
# B3: SEQ ID NO: 86 (peptide)
# peptide: XNTXKXXXXKNXX
# modifications: MeCO-Pen(3)-N-T-7MeW-K(NMecPEG3a)-Pen(3)-AEF-2Nal-THP-K(PEG2PEG2gEC18OH)-N-3Pya-Sar-CONH2
# B4: SEQ ID NO: 78 (peptide)
# peptide: XNTXXXXXXKNXX
# modifications: cPEG3aCO-Pen(3)-N-T-7MeW-K(Ac)-Pen(3)-AEF-2Nal-THP-K(PEG2PEG2gEC18OH)-N-3Pya-Sar-CONH2
# B5: SEQ ID NO: 55 (peptide)
# peptide: [dR][Pen]K([PEG2″-PEG2″-γGlu-C18OH])T[Trp(7-Me)]K(Ac)[Pen][AEF][2Nal][Thp]EN[3Pal][Sar]-NH2
# modifications: disulfide 2-7 (inferred); not fully specified (N-terminus); printed as cPEG3aCO-r-Pen(3)-K(PEG2PEG2gEC18OH)-T-7MeW-K(Ac)-Pen(3)-AEF-2Nal-THP-E-N-3Pya-Sar-CONH2
# B6: SEQ ID NO: 81 (peptide)
# peptide: 5cpaCO-[dR][Pen]NT[Trp(7-Me)]K(Ac)[Pen][AEF][2Nal][Thp]EN[3Pal][Sar]K([PEG2′-PEG2′-γGlu-C18OH])-NH2
# modifications: disulfide 2-7 (inferred); reading uncertain; also: printed as 5cpaCO-r-Pen(3)-N-T-7MeW-K(Ac)-Pen(3)-AEF-2Nal-THP-E-N-3Pya-Sar-K(PEG2PEG2gEC18OH)-CONH2
# B7: SEQ ID NO: 54 (peptide)
# peptide: succiniccarn-[dR][Pen]NT[Trp(7-Me)]K(Ac)[Pen][AEF][2Nal][Thp]EN[3Pal][Sar]K([PEG2″-PEG2″-γGlu-C18OH])-NH2
# modifications: disulfide 2-7 (inferred); reading uncertain; also: printed as succiniccarn-r-Pen(3)-N-T-7MeW-K(Ac)-Pen(3)-AEF-2Nal-THP-E-N-3Pya-Sar-K(PEG2PEG2gEC18OH)-CONH2
# B8: SEQ ID NO: 77 (peptide)
# peptide: XNTXXXXXXKNXX
# modifications: 5cpaCO-Pen(3)-N-T-7MeW-K(Ac)-Pen(3)-AEF-2Nal-THP-K(PEG2PEG2gEC18OH)-N-3Pya-Sar-CONH2
# B9: SEQ ID NO: 31 (peptide)
# peptide: succiniccarn-[dR][Pen]NT[Trp(7-Me)]K(Ac)[Pen][AEF][2Nal][Thp]EN[3Pal][NMeK]([PEG2′-PEG2′-γGlu-C18OH])-NH2
# modifications: disulfide 2-7 (inferred); reading uncertain; also: printed as succiniccarn-r-Pen(3)-N-T-7MeW-K(Ac)-Pen(3)-AEF-2Nal-THP-E-N-3Pya-NMeK(PEG2PEG2gEC18OH)-CONH2
# B10: SEQ ID NO: 36 (peptide)
# peptide: Ac-[dR][Pen]NT[Trp(7-Me)]K([PEG2′-PEG2′-γGlu-C18OH])[Pen][dAEF′][2Nal][Thp]EN[3Pal][Sar]-NH2
# modifications: disulfide 2-7 (inferred); reading uncertain; also: printed as MeCO-r-Pen(3)-N-T-7MeW-K(PEG2PEG2gEC18OH)-Pen(3)-AEF(d)-2Nal-THP-E-N-3Pya-Sar-CONH2
# B11: SEQ ID NO: 73 (peptide)
# peptide: [dR][Pen]K([PEG2″-PEG2″-γGlu-C18OH])T[Trp(7-Me)]K(Ac)[Pen][AEF][2Nal][Thp]EN[3Pal][Sar]-NH2
# modifications: disulfide 2-7 (inferred); not fully specified (N-terminus); printed as 5cpaCO-r-Pen(3)-K(PEG2PEG2gEC18OH)-T-7MeW-K(Ac)-Pen(3)-AEF-2Nal-THP-E-N-3Pya-Sar-CONH2
# B12: SEQ ID NO: 71 (peptide)
# peptide: [dR][Pen]NT[Trp(7-Me)]K([PEG2″-PEG2″-C18OH])[Pen][AEF][2Nal][Thp]EN[3Pal][Sar]-NH2
# modifications: disulfide 2-7 (inferred); not fully specified (N-terminus); printed as 5cpaCO-r-Pen(3)-N-T-7MeW-K(PEG2PEG2C18OH)-Pen(3)-AEF-2Nal-THP-E-N-3Pya-Sar-CONH2
# B13: SEQ ID NO: 45 (peptide)
# peptide: [dR][Pen]NT[Trp(7-Me)]K(Ac)[Pen][AEF][2Nal][Thp]K(code d)N[3Pal][Sar]-NH2
# modifications: disulfide 2-7 (inferred); not fully specified (N-terminus); printed as HOC18gEPEG2PEG2CO-r-Pen(3)-N-T-7MeW-K(Ac)-Pen(3)-AEF-2Nal-THP-K(d)-N-3Pya-Sar-CONH2
# B14: SEQ ID NO: 79 (peptide)
# peptide: Ac-[dR][Pen]NT[Trp(7-Me)]K([PEG2′-PEG2′-γGlu-C18OH])[Pen][AEF][2Nal][Thp]K(NMecPEG3a)N[3Pal][Sar]-NH2
# modifications: disulfide 2-7 (inferred); reading uncertain; also: printed as MeCO-r-Pen(3)-N-T-7MeW-K(PEG2PEG2gEC18OH)-Pen(3)-AEF-2Nal-THP-K(NMecPEG3a)-N-3Pya-Sar-CONH2
# B15: SEQ ID NO: 49 (peptide)
# peptide: succiniccarn-[dR][Pen]NT[Trp(7-Me)]K(Ac)[Pen][AEF][2Nal][Thp]K([PEG2″-PEG2″-γGlu-C18OH])N[3Pal][Sar]-NH2
# modifications: disulfide 2-7 (inferred); reading uncertain; also: printed as succiniccarn-r-Pen(3)-N-T-7MeW-K(Ac)-Pen(3)-AEF-2Nal-THP-K(PEG2PEG2gEC18OH)-N-3Pya-Sar-CONH2
# B16: SEQ ID NO: 32 (peptide)
# peptide: {C18OH-γGlu-PEG2′-PEG2′}-[dR][Pen]NT[Trp(7-Me)]K(Ac)[Pen][dAEF′][2Nal][Thp]EN[3Pal][Sar]-NH2
# modifications: disulfide 2-7 (inferred); reading uncertain; also: printed as HOC18gEPEG2PEG2CO-r-Pen(3)-N-T-7MeW-K(Ac)-Pen(3)-AEF(d)-2Nal-THP-E-N-3Pya-Sar-CONH2
# Target: T1, interleukin-23 receptor (IL-23R)
# Experiment: cell-based or functional assay
row,PBMC pSTAT3 IC50,Binder
1,< 0.5 nM,Ac-[dK]([PEG2″-PEG2″-γGlu-C18OH])[Pen]NT[Trp(7-Me)]K(Ac)[Pen][AEF][2Nal][Thp]EN[3Pal][Sar]-NH2 (disulfide 2-7) [SEQ ID NO: 58]
2,< 0.5 nM,Ac-[dR][Pen]NT[Trp(7-Me)]K(Ac)[Pen][AEF][2Nal][Thp]K([PEG12′-γGlu-C18OH])N[3Pal][Sar]-NH2 (disulfide 2-7 (inferred)) [SEQ ID NO: 146]
3,< 0.5 nM,B1
4,< 0.5 nM,B2
5,< 0.5 nM,B3
6,< 0.5 nM,B4
7,< 0.5 nM,B5
8,< 0.5 nM,Ac-[Pen]NT[Trp(7-Me)]K(Ac)[Pen][TMAPF][2Nal][Thp]K([PEG2′-PEG2′-γGlu-C18OH])N[3Pal][Sar]-NH2 (disulfide 1-6 (inferred)) [SEQ ID NO: 85]
9,< 0.5 nM,Ac-[dR][Pen]NT[Trp(7-Me)]K(Ac)[Pen][AEF][2Nal][Thp]K(code d)N[3Pal][NMeK]([PEG2′-PEG2′-γGlu-C18OH])-NH2 (disulfide 2-7 (inferred)) [SEQ ID NO: 41]
10,< 0.5 nM,Ac-[dR][Pen]NT[Trp(7-Me)]K([PEG2″-PEG2″-γGlu-C18OH])[Pen][AEF][2Nal][Thp]EN[3Pal][Sar]-NH2 (disulfide 2-7) [SEQ ID NO: 59]
11,< 0.5 nM,B6
12,< 0.5 nM,B7
13,< 0.5 nM,Ac-[dR][Pen]NT[Trp(7-Me)]K(Ac)[Pen][AEF][2Nal][Thp]EN[3Pal][NMeK]([PEG2′-NMePEG2-NMegE-NMeC18OH])-NH2 (disulfide 2-7 (inferred); reading uncertain) [SEQ ID NO: 80]
14,< 0.5 nM,Ac-[dR][Pen]K(code d″)T[Trp(7-Me)]K(Ac)[Pen][AEF][2Nal][Thp]EN[3Pal][Sar]K([PEG2″-PEG2″-γGlu-C18OH])-NH2 (disulfide 2-7 (inferred)) [SEQ ID NO: 53]
15,< 0.5 nM,B8
16,< 0.5 nM,B9
17,< 0.5 nM,B10
18,< 0.5 nM,B11
19,< 0.5 nM,Ac-[dR][Pen]NT[Trp(7-Me)]K(code d″)[Pen][AEF][2Nal][Thp]EN[3Pal][Sar]K([PEG2″-PEG2″-γGlu-C18OH])-NH2 (disulfide 2-7 (inferred)) [SEQ ID NO: 52]
20,< 0.5 nM,B12
21,< 0.5 nM,B13
22,< 0.5 nM,B14
23,< 0.5 nM,B15
24,< 0.5 nM,Ac-[dR][Pen]NT[Trp(7-Me)]K(code d)[Pen][AEF][2Nal][Thp]K([PEG2′-PEG2′-γGlu-C18OH])N[3Pal][Sar]-NH2 (disulfide 2-7 (inferred)) [SEQ ID NO: 48]
25,< 0.5 nM,B16
